Our source for the Km, kcat and kcat/Km values is paper PMC10917881, “Biochemical characterization of L-asparaginase isoforms from Rhizobium etli—the boosting effect of zinc” (Frontiers in Chemistry, 2024).

Where a chain is given by its changes, count along the chain named. Numbers in names are those of the source.

Substrate in data set [1]: NC(=O)C[C@H](N)C(=O)O
Nature of the data set: ITC multiple injection method (heat-rate). In kind it is biochemical, Rhizobium etli. The note with it: 10 mM Tris-HCl pH 9.0, 37°C, with optimal 1 µM Zn2+ (metal cofactor). From the text: ITC multiple injection method (heat-rate) on ReAIV

Substrate in data set [2]: C=CC(N)=O
Nature of the data set: ITC, Michaelis-Menten fit. In kind it is biochemical, Rhizobium etli. The note with it: possible substrate only: heat signal, product not confirmed by Nessler, protein adduct not excluded; fit before product inhibition / inactivation. From the text:
ITC, Michaelis-Menten fit on ReAIV | after acrylamide injection into the reaction cell containing ReAIV, but not ReAV
(In ITC the heat of successive injections is recorded.)

Substrate in data set [3]: NC(=O)C[C@H](N)C(=O)O
In words: purified protein. The note with it: 10 mM Tris-HCl pH 9.0, 37°C, with optimal Zn2+ (metal cofactor).

Substrate in data set [4]: NC(=O)C[C@H](N)C(=O)O
In words: ITC multiple injection method (heat-rate). In kind it is biochemical, Rhizobium etli. The note with it: Tris-HCl pH 9.0, 37°C. From the text: ITC multiple injection method (heat-rate) on ReAV

Where [5] appears, read: with optimal 2.5 µM Zn2+ (metal cofactor).

B1: ReAIV (Rhizobium etli CFN 42) (protein)
chain: MTNPVTVEVTRGLLVESRHRGAVAVVDGDGKLFFSLGDIDTAVFPRSACKAMQALPLVESGAADAYGFGDKELALACASHNGEEEHVALAASMLSRAGRNVEALECGAHWSMNQKVLIQQARSLDAPTALHNNCSGKHAGFICACCHRDIDPKGYVGYEHPLQVEIRAVMERLTGAVLGAESCGTDGCSIPTYAMPLRNLAHGFARMATGTGLEPLRAKASRRLIEACMAEPFYVAGSGRACTKLMQIAPGRIFVKTGAEGVFCAAIPEKGIGISLKSEDGATRAAEAMVAATLARFFETEETVHAALMAFAAMPMRNWNGIHVGDIRATSVFSA
notes: full length, 335 residues; N-terminal 6xHis tag cut off by TEV (pET151D); E. coli BL21 Gold (DE3); homodimer
As usually defined, the Km is the substrate concentration at which the rate is half of its maximum. Usually kcat stands for the maximal rate divided by the concentration of active sites. Usually kcat/Km stands for the turnover number divided by the Michaelis constant. In the case of B1, in data set [1], the Km was found to be 1500 ± 100 µM, the kcat was determined as 770 ± 17 s⁻¹ and the kcat/Km was 526000 ± 34000 M⁻¹ s⁻¹. Also, in data set [2], the Km came out at 5500 µM and the kcat is 12.6 s⁻¹.

B2: ReAIV (Rhizobium etli CFN 42; K137A) (protein)
chain: B1 chain with K137A
With B2, in data set [3], the Km was determined as 2300 ± 100 µM, the kcat came to 158 s⁻¹ and the kcat/Km is 70000 M⁻¹ s⁻¹.

B3: ReAV (Rhizobium etli CFN 42) (protein)
chain: MTPSEDFVVTDRGGIVENSHRVHAAVVDAKGRLLYALGNPTRMTLARSAAKPAQALAILETEGVAGYGFDDADIALMCASHSSEDRHIARTRAMLSKIKAEEADLRCGGHPSLSEMVNRSWIKQDFIPTAVCSNCSGKHVGMLAGARAIGAGTDGYHLPDHPMQGRVKRTVAELCDLDAGDVEWGTDGCNLPTPAFPLDRLGRIYAKLASAADGSDAGEGQSTRCAALAHIFRAMARHPEMVAGEGRYCTMLMRAFDGALVGKLGADASYAIGVRASDATRQLGTDGALGISVKIEDGNLEMLYAVVTELLERLGIGSPDVRSQLASFHHPQRVNTMGVTTGGVSFPFKLRGSKSNVDDPRLAAVAR
notes: full length, 367 residues; N-terminal 6xHis tag cut off by TEV (pET151D); E. coli BL21 Gold (DE3); homodimer
Regarding B3, in data set [4] (setting [5]), the Km amounted to 2100 ± 200 µM, the kcat was determined as 603 ± 24 s⁻¹ and the kcat/Km came out at 294000 ± 31000 M⁻¹ s⁻¹.

B4: ReAV (Rhizobium etli CFN 42; K138A) (protein)
chain: B3 chain with K138A
notes: as for B3
Regarding B4, in data set [4] (with optimal Zn2+ (metal cofactor)), the Km was determined as 500 ± 100 µM.
